T1: AT2 receptor (Homo sapiens, UniProt P50052)
T1 sequence (P50052 1-363): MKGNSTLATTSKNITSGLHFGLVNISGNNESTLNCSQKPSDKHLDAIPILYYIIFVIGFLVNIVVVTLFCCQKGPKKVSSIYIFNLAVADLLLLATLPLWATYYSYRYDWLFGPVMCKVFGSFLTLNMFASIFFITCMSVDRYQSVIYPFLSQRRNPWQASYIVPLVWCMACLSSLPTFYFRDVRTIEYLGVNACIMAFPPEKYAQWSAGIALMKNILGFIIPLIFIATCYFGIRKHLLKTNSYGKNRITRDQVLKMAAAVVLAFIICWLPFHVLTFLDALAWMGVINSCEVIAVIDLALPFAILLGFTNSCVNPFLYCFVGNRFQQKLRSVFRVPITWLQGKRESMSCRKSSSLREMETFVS

T2: C-terminal end of the human AT2 receptor (Asn314-Ser363) (Homo sapiens, UniProt P50052)
T2 construct: C-terminal end of the human AT2 receptor (Asn314-Ser363); made in house; host or cells: E. coli DH5α (pMAL-c2-AT2)
T2 sequence (P50052 314-363): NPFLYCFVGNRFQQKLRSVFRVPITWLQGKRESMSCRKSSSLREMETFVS

T3: C-terminal end of human AT1 receptor (Leu 297-Glu 359) (Homo sapiens, UniProt P30556)
T3 construct: C-terminal end of human AT1 receptor (Leu 297-Glu 359); made in house; host or cells: bacteria, same protocol as MBP-AT2 (E. coli DH5α)
T3 sequence (P30556 297-359): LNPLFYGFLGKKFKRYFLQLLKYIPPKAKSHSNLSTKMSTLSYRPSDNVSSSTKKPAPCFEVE

T4: C-terminal end of the mouse AT2 receptor (Mus musculus, UniProt P35374)
T4 construct: expressed in transfected cells; host or cells: yeast HF7c (pGBT9 bait) or L40 (pLex9 bait)
T4 sequence (P35374 312-363): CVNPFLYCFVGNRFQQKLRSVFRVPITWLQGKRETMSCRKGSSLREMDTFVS

B1: ATIPmouse-short: Polypeptide (SEQ ID NO:6) encoded by the 354 bp ATIP clone (SEQ ID NO:5); AT2 interacting protein fragment, used as a GST fusion (protein)
chain: HQTDRTELENRLKDLYTAECEKLQSIYIEEAEKYKTQLQEQFDNLNAAHETTKLEIEASHSEKVELLKKTYETSLSEIKKSHEMEKKSLEDLLNEKQESLEKQINDLKSENDALNERL
modifications: used as GST fusion; Insert identified by yeast two hybrid screening of a M. musculus fetal cDNA library

Legend:
AT2 receptor [1] = target: T1, AT2 receptor; assay: Inhibition of insulin-induced tyrosine phosphorylation in CHO-hAT2-ATIP cells; assay type: cell-based; set-up: a plasmid containing the region encoding the human AT2 receptor; expressed in transfected cells; host or cells: CHO-hAT2 cells stably transfected with ATIPmouse-long; conditions: 100 nM, insulin 0.05, 0.01, 0.005, 0.001 μg/ml, reproduced 3 times
Text: (§1) For that, a stable clone of CHO-hAT2 cells expressing the ATIPmouse-long protein (CHO-hAT2-ATIP), obtained according to the methodology described in Example 4, was used; the functional test for the activity of the AT2 receptor developed on the CHO-hAT2 clone which consists in inhibiting the phosphorylation of the IRβ subunit of the insulin receptor induced by its ligand, was reproduced.
The CHO-hAT2 cells are inoculated at a density of 3×10^6 cells per dish having a diameter of […]. They are made quiescent by 16 hours of deprivation before being treated. The treatment consists in bringing into contact for 5 minutes with 15 ml of F12 medium containing insulin supplemented or otherwise with CGP42112 (selective agonist of the AT2 receptor). […] After bringing into contact and washings, the lectin beads coupled to Sepharose (Pharmacia) are recovered in sample buffer containing SDS and the eluted proteins are analysed in SDS-PAGE followed by immunoblotting with anti-phosphotyrosine antibodies (Upstate Biotechnology, Inc.) or anti-IRβ antibodies (described in Issad, T. et al., cited above). […]

AT2 receptor [2] = target: T1, AT2 receptor; assay: Inhibition of insulin-induced tyrosine phosphorylation in CHO-hAT2 cells; assay type: cell-based; set-up: a plasmid containing the region encoding the human AT2 receptor; expressed in transfected cells; host or cells: CHO cells deficient in dihydrofolate reductase (clone CHO-hAT2)
Text: as §1
The CHO-hAT2 cells are inoculated at a density of 3×10^6 cells per dish having a diameter of […]. They are made quiescent by 16 hours of deprivation before being treated. […] After treatment, the cells are solubilized in lysis buffer containing: 50 mM Hepes, pH 7.6, 1% Triton X-100, 20 mM EDTA, 30 mM sodium pyrophosphate, 30 mM sodium fluoride, 2 mM benzamidine, 1 mM sodium orthovanadate, 1 mM phenylmethylsulphonyl fluoride and 1 μg/ml of aprotinin, pepstatin, antipain and leupeptin. The lysates are then subjected to purification on a wheatgerm lectin column, according to the protocol described in Issad, T. et al., (Eur. J. Biochem. 1995, 234, 108-115). After bringing into contact and washings, the lectin beads coupled to Sepharose (Pharmacia) are recovered in sample buffer containing SDS and the eluted proteins are analysed in SDS-PAGE followed by immunoblotting with anti-phosphotyrosine antibodies (Upstate Biotechnology, Inc.) or anti-IRβ antibodies (described in Issad, T. et al., cited above).

[3] = target: T2, C-terminal end of the human AT2 receptor (Asn314-Ser363); assay: In vitro GST pull-down of MBP-AT2 on GA-GST-ATIPmouse-short beads; assay type: binding; conditions: compared with GA-GSTalone beads; SDS-PAGE and anti-MBP immunoblot; FIG. 10
Method: For that, the fusion protein GST-ATIP as described above was produced; it is combined through its GST part with glutathione coupled to agarose beads (GA). In parallel, bacteria (DH5α) are transfected with a plasmid (pMAL-c2-AT2, derived from pMAL-c2 from New England Biolabs) encoding a fusion protein between the C-terminal end of the human AT2 receptor (Asn314-Ser363) and MBP (Maltose Binding Protein). These bacteria were cultured and the fusion protein was induced in 0.3 mM IPTG according to the protocol “pMAL Protein Fusion and Purification System” from New England Biolabs. After centrifugation of the culture at 4000 g and solubilization of the pellet obtained in “column buffer” (20 mM Tris-HCl, 200 mM NaCl, 1 mM EDTA), another centrifugation at 9000 g made it possible to recover a supernatant containing a high concentration of MBP-AT2. This supernatant was brought into contact, for 3 hours at […], with glutathione agarose beads coupled to GST protein alone after addition of NaCl so as to have 300 mM final NaCl. This preincubation step makes it possible to remove the nonspecific interactions which may exist between ATIP and GA-GST. The supernatant recovered was brought into contact with the GA-GST-ATIPmouse-short or GA-GSTalone beads overnight at 4° C. After contact, the beads were rinsed three times in 20 mM Tris-HCl buffer, 300 mM NaCl, 1 mM EDTA and once in “column buffer”.

[4] = tested on: C-terminal end of the rat AT1 receptor; assay: Two-hybrid selectivity test with a control bait; assay type: binding
Text: (§2) Protein X: C-terminal end of the human β2-adrenergic receptors, rat AT1 or human bradykinin.

[5] = target: T5, C-terminal end of the human β2 adrenergic receptor (Homo sapiens, UniProt P07550); assay: Two-hybrid selectivity test with a control bait; assay type: binding
T5 construct: C-terminal end of the human β2-adrenergic receptors; expressed in transfected cells
Text: as §2

[6] = tested on: C-terminal end of the human bradykinin receptor; assay: Two-hybrid selectivity test with a control bait; assay type: binding
Text: as §2

[7] = target: T3, C-terminal end of human AT1 receptor (Leu 297-Glu 359); assay: In vitro GST pull-down of MBP-AT1 on GA-GST-ATIPmouse-short beads; assay type: binding; conditions: SDS-PAGE and anti-MBP immunoblot; FIG. 10
[8] = target: T4, C-terminal end of the mouse AT2 receptor; assay: Two-hybrid interaction of the ATIP clone with the AT2 C-terminal bait; assay type: binding; conditions: baits in pGBT9 and pLEX9; mouse foetal cDNA library clone
Text: In the two-hybrid system, the DNA-binding domain is fused with a protein X and the activation domain is fused with a protein Y. If, and only if, X and Y interact, a complex is formed which reconstitutes a functional transcription factor.
Protein X: C-terminal end of the sequence encoding the mouse AT2 receptor (52 amino acids of CVNPF at the stop codon, see FIG. 1), fused with the sequence encoding the Gal4 DNA-binding domain (FIG. 2).
Insert: end of the mouse AT2 receptor (159 bp+16 bp of sites generated by PCR) inserted at the level of the EcoRI and BamHI sites of the vectors pLEX9 (Clontech) or pGBT9 (modified pGAD424 or pBTM116; A. B. Vojtek et al., Cell, 1993, 74, 205-214).
mouse foetal cDNA library (A. B. Vojtek et al., Cell, 1993, 74, 205-214) , containing inserts of 350 to 700 bp (protein Y) in the vector VP16 (FIG. 5).
HF7c (Clontech) for the bait constructed in pGBT9;
L40 for the bait constructed in pLex9.

Molecule	inhibition of the phosphorylation of the insulin receptor (AT2 receptor [1])	inhibition of the phosphorylation of IRβ induced by insulin (AT2 receptor [2]; CHO-hAT2 cells, 100 nM, all insulin doses between 0.1 and 0.001 μg/ml, 5 minutes)	inhibition of the phosphorylation of IRβ (AT2 receptor [2]; CHO-hAT2 cells, induced by 0.01 μg/ml insulin, n=7) [%]	inhibition of insulin-induced tyrosine phosphorylation of SIRP (120 kDa) (AT2 receptor [2]; clone CHO-hAT2)	retention of the MBP-AT2 protein on GA-GST-ATIPmouse-short beads [3]	two-hybrid interaction with the C-terminal end of the rat AT1 receptor [4]	two-hybrid interaction with the C-terminal end of the human β2 adrenergic receptor [5]	two-hybrid interaction with the C-terminal end of the human bradykinin receptor [6]	retention of the MBP-AT1 protein on GA-GST-ATIPmouse-short beads [7]	interaction with the C-terminal end of AT2 in the two-hybrid system [8]
CGP42112	not observed	inhibit	64±4	inhibited	–	–	–	–	–	–
B1	–	–	–	–	specific retention	negative results	negative results	negative results	not retained in a specific manner	interacts specifically
